Data reported in the supplement of paper PMC12764529.
± gives the half width of the 95% confidence interval.

Assay: folding stability dG unfold from trypsin proteolysis; higher = more stable
How it was run: (§1)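 Sequencing followed digestion of designed mini-proteins with trypsin and chymotrypsin, each at 11 concentrations in threefold dilutions together with a no-protease condition. The mini-proteins were under 80 residues, had no cysteine, sat in a PA-tagged cDNA display construct, and were kept only if AlphaFold2 dimer inter-PAE was above 15. From the counts, Bayesian fitting gave K50, and unfolding free energy was derived against a sequence-predicted unfolded-state K50 and a shared folded-state K50, per protease or combined.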

Sequence	folding stability dG unfold [kcal/mol]
SAGGSAGGSAGGKVKIVSVSYDPETGKLTVEVEIPNPKKLLTVTTDNPNIPAEEIAKKLASAGGSAGGSAGG [r7_833_TrMRF]	0.453 ± 0.091
SAGGSAGGSAGGEKKKIAKKIKEELEKKGIKVKKVETSEDYIYITFEDGSKKKIKIDKGSAGGSAGGSAGGS [r10_169_TrMRF]	2.1 ± 0.16
SAGGSAGGSAGGNNLYSTSTTVLSTVPVRPDETVTRPGTGAPVSPSETVALSTTSTAPSLSAGGSAGGSAGG [r11_793_JUSTAS]	0.629 ± 0.026
SAGGSAGGSAGAAVSPEELKEKAKKEGYDGEVVVTRLPDGTLRVTVKDKGKKSEITVPLESAGGSAGGSAGG [r11_410_JUSTAS]	0.263 ± 0.064
SKFDPDDPGQPVRFTVMIPVPEDAMKNGDLEEVRDKVEEAADMFRPHGMEVKDIEVPPEQGWVMVKFEMPSA [r9_75_TrROS]	-0.824 ± 0.34
SAGGSAGKPVLVRVKLRLEFPGTGELAEAEVVVEADSIEDALDRVLKELTLPDFKAEVLDVKAIPLSAGGSA [r2_320_TrMRF]	2.1 ± 0.11
SAGGSAGGSAGMKTVTETEFDPAAPVVTTTTSLVTLPPDGKPSITSTTTTTTAVAAPAAAASAGGSAGGSAG [r3_138_JUSTAS]	-0.0492 ± 0.05
SAGGEFRITFMVPADPNDPAVELAKWIADEFMPPGWKVEVDIKVVPSPDGYYMIDIPVEIMPPGQPISAGGS [r16_128_TrROS]	1.71 ± 0.14
SAGGSAGGSAGGENDWIPIRMEMTFKLPNGVKITIKMEMWVQPDGDILGMRIHDIEIEVPSAGGSAGGSAGG [r7_356_TrROS]	3.6 ± 0.21
SAGGSAGGSKKRTILIQFPNGSPEEAVDNIKNWLRALGNEPIPLEDVKIQWYPGNPGYFQIEISAGGSAGGS [r12_122_TrROS]	1.81 ± 0.027
SAMVIPAEVRLPGTPEEVLEKAREFADTLAARFRELGFEVVAVELEEIEPGEAVVRLRIVVARPDEEFPSAG [r14_973_TrMRF]	2.75 ± 0.086
SAPPNHRMVMYEIPIPPGMEIGDEIKLKIKVPGKEYPIKIDRIPNLPPGMRVRIMFNLDNGQFMIQILPSAG [r14_554_TrROS]	2.52 ± 0.1
SAGGEVRLRLEAELLPDGTLVLRGRVEVRVGDRVFEFEFELVLRLEPVPPPPAPARPLLIPERLLDASAGGS [r8_269_TrMRF]	1.47 ± 0.098
SAGGKMKTVKVTITDKDGRKIEIVDVTVKDNKVYVVVKDKKTKKTIVLEFDTKEEAEEAIKKLLEAKSAGGS [r16_736_TrROS_Hall]	0.976 ± 0.071
SAGGAEEIRKELGISPEEKVTVKLVVPEGGRPREFTVEMKPDELEKVLEELGVPPEKLEITEVEVIEESAGG [r13_681_JUSTAS]	-1.39 ± 0.38
SAKNIAIKVSIWPFDPEDGEPQTFEITYPFPDPEDAIDEIEEFLPPGYRVKIEVFDPDGKPLKEIEIRISAG [r14_234_TrROS]	1.93 ± 0.1
SAGGSAKSIKAEELAKEIADLMQERNPNWRVEIEPQPGPGPMITVKIYHRDPNNGDQQPINTFTIRSAGGSA [r15_682_TrROS]	0.502 ± 0.099
SAGGSASGYYTTTTVEIEPEGDTLTTVTTTTLGVPVTFDPVNNTLTLNLPPDQSLVTTTTVTEVAASAGGSA [r15_1040_JUSTAS]	1.02 ± 0.04
SAGGSAGGSKKKKKPKKKKYIVIKVDMSLEEVKKLISKLLGFEEGEKIEIVKVDPENKYIVIKSAGGSAGGS [r12_815_TrROS_Hall]	2.01 ± 0.072
SAMIVVEIEESRSPTSPERTVTVTVKKPDGTVVKTIPITVSGANPSATPEEVRALAEPIVEELVKKGLLSAG [r14_120_JUSTAS]	1.44 ± 0.026
SAGGSAGGSAGLPPGDKVTISIPIVIPDGYMINSHITIDPDNGETEIEIQIYPLKDPDALSAGGSAGGSAGG [r11_695_TrROS]	2.1 ± 0.21

Sequence	folding stability dG unfold [kcal/mol]
SAGGSGMIPVTVDFPPDVSEEEIKAYVEELEKKGYKVLKVEITTEKDAKGNTLRTVTVVLAPPSLLSAGGSA [r2_442_JUSTAS]	3.14 ± 0.048
SAGGSAMETIELKLEDGSTLTIERDPENPNTLTITFEDGRKITVTADSAEEALKKALELAKEGKLPSAGGSA [r15_38_TrROS_Hall]	4.36 ± 0.33
SAEPTLAEATNDPATGTATANFPLENLPPDYRVLAVNLETGEVTEFPPDGEVTITAPEGPVLVKLFWKGSAG [r14_134_TrMRF]	0.608 ± 0.13
SAGGSAGGTIPSDYSVKELKVGGKKYVIVRYPDGIVELYSVEGNKKTLLRTVDTDPNASVSISGSAGGSAGG [r6_476_JUSTAS]	1.73 ± 0.044
SAGGSAGGSAGGEIKGKKFKIVKIVEVRYDKETKEFYVRIYIEDTNEIITVRLEDLPEELSAGGSAGGSAGG [r7_304_TrROS_Hall]	1.83 ± 0.077
SAGGSAGGSAGVVLKEPKGGVPKTITEDPNHPGLYTTGSPDGTISTRPLEIKPEEEPVLLSAGGSAGGSAGG [r17_85_JUSTAS]	-1.01 ± 0.49
SAGGSAGGSAGGPPSVPITITLIILFPDGYFIVIELTIEVPPDGEIEIKIKILHIFPVKSAGGSAGGSAGGS [r10_1139_TrROS]	3.1 ± 0.093
SAGGITINEDGTITIEVNGKTYTIKLPPGAEITKIEVLEDGTIKITLRINGKTVTLELKVYKEGEEPSAGGS [r16_635_TrROS_Hall]	4.56 ± 0.42
SAGGSAPWVTLPIIIMFDSPEQAVEEVKPIFQELFGIKDVNVEEEPMPNGMVFVPIEITIPAENMKSAGGSA [r15_173_TrROS]	0.547 ± 0.061
SAYLMFMIPIKNDEITIKIPVPPGYYVRIFVFFPDGMEPRTIPPDEKVKIKIPKPGAWIMIMVYPAEEMSAG [r14_882_TrROS]	3.38 ± 0.12
SAGGSAGGSASVKVEEKPTEIVITTKSPSPVITVETIPLSPDGVPVGKKTTTISLPPKDIILSAGGSAGGSA [r18_300_JUSTAS]	-0.3 ± 0.11
SAGGKLQLLLRSPDGNVEVALSFEKLPDGKVKVTATVRNKKTGRTYRLEVTFDLKTKKIEIKLEELPSAGGS [r16_684_TrROS_Hall]	4.78 ± 0.22
SAGGKIKIKINGKTYTVEDAEIIEVKKNKNGKKEIIIKIKVNGKTYEIVISEEDLKKIKPGDTITLKSAGGS [r16_638_TrROS_Hall]	2.4 ± 0.053
SAGGGLSPDTPVNYVVFVELPNGERRTFNVPGPAGRPEVAIAIAEKLREEGYEVKAIFPGEGVIVVGSAGGS [r8_497_TrMRF]	2.88 ± 0.12
SAGGSAGGSASVTTTTTPLPGDRTLTTTTYPDGTVKVTTYTVDTATGTVTSTSTTLSPATLTSAGGSAGGSA [r18_325_JUSTAS]	1.15 ± 0.042
SMLTITDENGNTITLPAAGEPVTLTVEIEVDGYTVTVEITFDADTKKITIKVEVTNPNGEKQTFTFTFDLSA [r9_1073_TrROS_Hall]	2.92 ± 0.12
SAGGMKIIEIEYDEETGKYKFKIKIYDKKTGKLYEIEVEVDKKTGKLSIEEIAKKIAEKLGLPKDIKISAGG [r13_362_TrROS_Hall]	2.8 ± 0.17
SAGGMMTPVSEETLPDGSKVLVEENPATGERTVTTLNPATGTVTTETLKRVPGENAWTLLSKTTTPAPSAGG [r19_249_JUSTAS]	2.033 ± 0.018
SAGMLVRVTLKYPDGKTIKIPFPYAKILSEETSNNETTFTIDSPESADKAVEAIKKEYPDIEVKVEPLESAG [r5_453_JUSTAS]	1.67 ± 0.022
SAGGSAGGMKITIEKLDPEKGVYLLTVKPPGPGKTLVIELPVEKEEEALAFAKKLEELGYEVENSAGGSAGG [r6_796_TrMRF]	1.02 ± 0.02
SAGGSAGGPIKDSKGKFIVTFEFPNGLKKKFEVENIKNPEIEFNFNGKKVKTKIIEIKKGDESKSAGGSAGG [r6_575_TrMRF]	-0.117 ± 0.12

Assay: folding stability dG unfold from chymotrypsin proteolysis; higher = more stable
How it was run: as §1

Sequence	folding stability dG unfold [kcal/mol]
SAGGSAGGSAGGKVKIVSVSYDPETGKLTVEVEIPNPKKLLTVTTDNPNIPAEEIAKKLASAGGSAGGSAGG [r7_833_TrMRF]	0.058 ± 0.056
SAGGSAGGSAGGEKKKIAKKIKEELEKKGIKVKKVETSEDYIYITFEDGSKKKIKIDKGSAGGSAGGSAGGS [r10_169_TrMRF]	1.6 ± 0.18
SAGGSAGGSAGGNNLYSTSTTVLSTVPVRPDETVTRPGTGAPVSPSETVALSTTSTAPSLSAGGSAGGSAGG [r11_793_JUSTAS]	-0.729 ± 0.081
SAGGSAGGSAGAAVSPEELKEKAKKEGYDGEVVVTRLPDGTLRVTVKDKGKKSEITVPLESAGGSAGGSAGG [r11_410_JUSTAS]	0.942 ± 0.041
SKFDPDDPGQPVRFTVMIPVPEDAMKNGDLEEVRDKVEEAADMFRPHGMEVKDIEVPPEQGWVMVKFEMPSA [r9_75_TrROS]	-0.222 ± 0.43
SAGGSAGKPVLVRVKLRLEFPGTGELAEAEVVVEADSIEDALDRVLKELTLPDFKAEVLDVKAIPLSAGGSA [r2_320_TrMRF]	2.03 ± 0.029
SAGGSAGGSAGMKTVTETEFDPAAPVVTTTTSLVTLPPDGKPSITSTTTTTTAVAAPAAAASAGGSAGGSAG [r3_138_JUSTAS]	1.41 ± 0.038
SAGGEFRITFMVPADPNDPAVELAKWIADEFMPPGWKVEVDIKVVPSPDGYYMIDIPVEIMPPGQPISAGGS [r16_128_TrROS]	2.81 ± 0.047
SAGGSAGGSAGGENDWIPIRMEMTFKLPNGVKITIKMEMWVQPDGDILGMRIHDIEIEVPSAGGSAGGSAGG [r7_356_TrROS]	4.75 ± 0.12
SAGGSAGGSKKRTILIQFPNGSPEEAVDNIKNWLRALGNEPIPLEDVKIQWYPGNPGYFQIEISAGGSAGGS [r12_122_TrROS]	2.94 ± 0.042
SAMVIPAEVRLPGTPEEVLEKAREFADTLAARFRELGFEVVAVELEEIEPGEAVVRLRIVVARPDEEFPSAG [r14_973_TrMRF]	2.79 ± 0.03
SAPPNHRMVMYEIPIPPGMEIGDEIKLKIKVPGKEYPIKIDRIPNLPPGMRVRIMFNLDNGQFMIQILPSAG [r14_554_TrROS]	2.69 ± 0.062
SAGGEVRLRLEAELLPDGTLVLRGRVEVRVGDRVFEFEFELVLRLEPVPPPPAPARPLLIPERLLDASAGGS [r8_269_TrMRF]	2.4 ± 0.065
SAGGKMKTVKVTITDKDGRKIEIVDVTVKDNKVYVVVKDKKTKKTIVLEFDTKEEAEEAIKKLLEAKSAGGS [r16_736_TrROS_Hall]	2.52 ± 0.066
SAGGAEEIRKELGISPEEKVTVKLVVPEGGRPREFTVEMKPDELEKVLEELGVPPEKLEITEVEVIEESAGG [r13_681_JUSTAS]	-0.121 ± 0.21
SAKNIAIKVSIWPFDPEDGEPQTFEITYPFPDPEDAIDEIEEFLPPGYRVKIEVFDPDGKPLKEIEIRISAG [r14_234_TrROS]	2.28 ± 0.048
SAGGSAKSIKAEELAKEIADLMQERNPNWRVEIEPQPGPGPMITVKIYHRDPNNGDQQPINTFTIRSAGGSA [r15_682_TrROS]	0.188 ± 0.15
SAGGSASGYYTTTTVEIEPEGDTLTTVTTTTLGVPVTFDPVNNTLTLNLPPDQSLVTTTTVTEVAASAGGSA [r15_1040_JUSTAS]	0.857 ± 0.033
SAGGSAGGSKKKKKPKKKKYIVIKVDMSLEEVKKLISKLLGFEEGEKIEIVKVDPENKYIVIKSAGGSAGGS [r12_815_TrROS_Hall]	2.35 ± 0.11
SAMIVVEIEESRSPTSPERTVTVTVKKPDGTVVKTIPITVSGANPSATPEEVRALAEPIVEELVKKGLLSAG [r14_120_JUSTAS]	1.47 ± 0.045
SAGGSAGGSAGLPPGDKVTISIPIVIPDGYMINSHITIDPDNGETEIEIQIYPLKDPDALSAGGSAGGSAGG [r11_695_TrROS]	2.12 ± 0.11
